Entries after “also recorded” stand apart in the source; their conditions may differ.
B1: hsa-mir-520a MI0003149 (nucleic acid, listed as Homo sapiens)
chain: CUCAGGCUGUGACCCUCCAGAGGGAAGUACUUUCUGUUGUCUGAGAGAAAAGAAAGUGCUUCCCUUUGGACUGUUUCGGUUUGAG
modifications: expressed or natural sequence
notes: seed 5'aagugcu; mimic or stably expressed

Assays:
Type in all cases: cell-based, human
OVCAR8 cells [1] = assay: Viability (MTS) across cisplatin concentrations, stable microRNA clones
Method: (§1) Established ovarian cancer cell lines were obtained from the ATCC (OVCAR8, OVCAR5) and the University of Texas M.D. Anderson Cancer Center (HEYA8, SKOV3ip1). All cell lines were maintained at 37° C. in RPMI 1640 media (Invitrogen, Carlsbad, Calif.) supplemented with 10% fetal bovine serums (Hyclone, Logan, Utah) and 1% penicillin/streptomycin (Gibco, Carlsbad, Calif.). MicroRNA mimics and mimic controls (Dharmacon, Lafayette, Colo.) were transiently transfected into actively growing cultures using Lipofectamine 2000 (Invitrogen, Carlsbad, Calif.). After a 24-hour incubation, transfected cultures were washed, passaged and seeded into 96 well plates. Proliferation and apoptosis were measured at 72, 96 and 120 hours after transfection using standard assays (Cell Titer 96 Aqueous One; Caspase Glo 3/7; Promega, Madison, Wis.). pLemiR expression vectors (Open Biosystems/Thermo, Huntsville, Ala.) were prepared according to manufacturer's instructions and transfected into cells using Fugene 6 (Roche, Indianapolis, Ind.). Following transfection, stable clones were selected using puromycin (Invitrogen) at doses optimized for each line. Rates of proliferation and apoptosis were examined in stable transfectants 24, 48, 72 and 96 hours after selected cells had been passaged and dispensed into 96 well plates. Viability was assessed across a clinically relevant range of cisplatin concentrations using an MTS assay (Promega). Cisplatin was obtained from Teva Pharmaceuticals (Irvine, Calif.).
(§2) For this reason, the inventors created clones of OVCAR8 and SKOV3ip1 ovarian cancer cell lines stably expressing either miR-520h (n=3) and miR-520a (n=3). […] To assess the impact of these microRNAs on cisplatin-induced cell killing, the inventors examined the viability of OVCAR8 and SKOV3ip1 cells stably expressing either microRNA incubated with clinically relevant concentrations of cisplatin. […] It should be noted that SKOV3ip1 cells tolerated only very low levels of miR-520a expression. The impact of cisplatin treatment on rates of apoptosis differed dramatically between the two cell lines.

SKOV3ip1 cells [2] = assay: as above
Method: as §1, §2

OVCAR8 cells [3] = assay: Proliferation assay (MTS, Cell Titer 96 Aqueous One); details: OVCAR8, transient/acute mimic transfection vs non-silencing control, no cisplatin
Method: as §1

OVCAR8 cells [4] = assay: Apoptosis assay (Caspase Glo 3/7)
Method: as §1

SKOV3ip1 cells [5] = assay: Apoptosis assay (Caspase Glo 3/7)
Method: as §1

[6] = tested on: established ovarian cancer cell lines; assay: Proliferation or apoptosis in established ovarian cancer cell lines after mimic transfection; details: mimics vs control cultures; cell lines SKOV4, HEY, OVCAR8, OVCAR5
Method: as §1, with “Rates of proliferation and apoptosis were examined in stable transfectants 24, 48, 72 and 96 hours after selected cells had been passaged and dispensed into 96 well plates.” left out, “Cisplatin was obtained from Teva Pharmaceuticals (Irvine, Calif.).” left out

Molecule	IC50 for cisplatinum in control cells (OVCAR8 cells [1]; OVCAR8 cells expressing a non-targeting mimic control) [mg/L]	IC50 for cisplatin in control cells (SKOV3ip1 cells [2]; SKOV3ip1 cells expressing the non-silencing control) [mg/L]	Sensitization to cisplatin (viability) (OVCAR8 cells [1]; OVCAR8 stable clones vs non-silencing mimic, cisplatin <5 μg/mL)	Sensitization to cisplatin (viability) (SKOV3ip1 cells [2]; SKOV3ip1 stable clones vs non-silencing mimic)	Proliferation (OVCAR8 cells [3])	Apoptosis (caspase 3/7) (OVCAR8 cells [4]; OVCAR8, transient/acute mimic transfection vs non-silencing control, no cisplatin)	Apoptosis in presence of cisplatin (OVCAR8 cells [4]; OVCAR8 stable clones, cisplatin up to 10 μg/mL)	Apoptosis (caspase 3/7) (SKOV3ip1 cells [5]; SKOV3ip1, acute mimic transfection, no cisplatin)	Apoptosis in presence of cisplatin (SKOV3ip1 cells [5]; SKOV3ip1 stable clones, cisplatin treatment)	Impact on proliferation or apoptosis [6]
N.N.[Cl][Pt][Cl] [cisplatin, reference compound]	1.31	0.43	–	–	–	–	–	–	–	–
B1	–	–	sensitized	appeared to sensitize	decreased proliferation only in OVCAR8 cells	decreased rates of apoptosis	significantly decreased; also recorded: significantly lower rates of apoptosis	decreased rates of apoptosis	significantly increased	impacted proliferation and/or apoptosis in some but not all
